Measurements published in article PMC3896488, “Complex Regulation of PKCβ2 and PDK-1/AKT by ROCK2 in Diabetic Heart” (PLoS ONE, 2014).

Target: Protein kinase C β2 (rat (endogenous in Wistar rat heart), UniProt P68403-2 1-673)
Assay: cell-based or functional assay

Chain of Protein kinase C β2 (P68403 other isoform, or with tags, fused parts or gaps): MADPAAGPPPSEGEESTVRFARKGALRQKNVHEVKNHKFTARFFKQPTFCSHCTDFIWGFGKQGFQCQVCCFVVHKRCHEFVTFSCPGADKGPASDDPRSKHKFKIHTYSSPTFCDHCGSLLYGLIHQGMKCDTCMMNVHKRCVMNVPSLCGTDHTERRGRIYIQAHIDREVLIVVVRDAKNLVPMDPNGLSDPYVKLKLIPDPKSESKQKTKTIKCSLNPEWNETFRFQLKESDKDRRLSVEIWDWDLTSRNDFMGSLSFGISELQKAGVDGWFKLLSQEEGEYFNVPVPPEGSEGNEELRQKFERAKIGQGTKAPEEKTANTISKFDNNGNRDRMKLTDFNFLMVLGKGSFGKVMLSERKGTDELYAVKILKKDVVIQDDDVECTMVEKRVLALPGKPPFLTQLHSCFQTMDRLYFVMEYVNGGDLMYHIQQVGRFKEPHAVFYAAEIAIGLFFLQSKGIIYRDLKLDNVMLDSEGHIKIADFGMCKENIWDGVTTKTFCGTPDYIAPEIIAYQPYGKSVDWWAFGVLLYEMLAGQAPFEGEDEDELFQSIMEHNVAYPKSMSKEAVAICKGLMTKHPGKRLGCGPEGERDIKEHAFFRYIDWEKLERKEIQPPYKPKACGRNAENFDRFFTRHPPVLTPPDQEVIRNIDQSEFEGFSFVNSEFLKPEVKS

in vitro phosphorylation of dephosphorylated PKCβ2 at T641 with against without active ROCK2 (molar ratio 1:30, 400 µM ATP, 37°C, 45 min), Western blot: ~2 fold
B1: ROCK2 (enzyme, rat (endogenous in Wistar rat heart), UniProt Q62868 1-1388, looked up)
chain: MSRPPPTGKMPGAPEAAAGDGAGAGRQRKLEALIRDPRSPINVESLLDGLNSLVLDLDFPALRKNKNIDNFLNRYEKIVKKIRGLQMKAEDYDVVKVIGRGAFGEVQLVRHKASQKVYAMKLLSKFEMIKRSDSAFFWEERDIMAFANSPWVVQLFCAFQDDRYLYMVMEYMPGGDLVNLMSNYDVPEKWAKFYTAEVVLALDAIHSMGLIHRDVKPDNMLLDKHGHLKLADFGTCMKMDETGMVHCDTAVGTPDYISPEVLKSQGGDGYYGRECDWWSVGVFLFEMLVGDTPFYADSLVGTYSKIMDHKNSLCFPEDTEISKHAKNLICAFLTDREVRLGRNGVEEIKSASFFKNDQWNWDNIRETAAPVVPELSSDIDSSNFDDIEDDKGDVETFPIPKAFVGNQLPFIGFTYFRENLLLSDSPPCRENDAIQTRKSEESQEIQKKLYALEEHLSSEVQAKEELEQKCKSINTRLEKTAKELEEEITFRKNVESTLRQLEREKALLQHKNAEYQRKADHEADKKRNLENDVNSLKDQLEDLKKRNQSSQISTEKVNQLQKQLDEANALLRTESDTAARLRKTQAESSKQIQQLESNNRDLQDKNCLLETAKLKLEKEFINLQSALESERRDRTHGSEIINDLQGRISGLEEDLKTGKTLLAKVELEKRQLQEKLTDLEKEKSNMEIDMTYQLKVIQQSLEQEEAEHKTTKARLADKNKIYESIEEAKSEAMKEMEKKLLEERSLKQKVENLLLEAEKRCSILDCDLKQSQQKLNELLKQKDVLNEDVRNLTLKIEQETQKRCLMQNDLKMQTQQVNTLKMSEKQIKQENNHLMEMKMNLEKQNAELRKERQDADGQMKELQDQLEAEQYFSTLYKTQVRELKEENEEKTKLCKELQQKKQDLQDERDSLAAQLEITLTKADSEQLARSIAEEQYSDLEKEKIMKELEIKEMMARHKQELTEKDATIASLEETNRTLTSDVANLANEKEELNNKLKDTQEQLSKLKDEEISAAAIKAQFEKQLLTERTLKTQAVNKLAEIMNRKEPVKRGSDTDVRRKEKENRKLHMELKSEREKLTQQMIKYQKELNEMQAQIAEESQIRIELQMTLDSKDSDIEQLRSQLQALHIGMDSSSIGSGPGDAEPDDGFPESRLEGWLSLPVRNNTKKFGWVKKYVIVSSKKILFYDSEQDKEQSNPYMVLDIDKLFHVRPVTQTDVYRADAKEIPRIFQILYANEGESKKEPEFPVEPVGEKSNYICHKGHEFIPTLYHFPTNCEACMKPLWHMFKPPPALECSRCHIKCHKDHMDKKEEIIAPCKVYYDISSAKNLLLLANSTEEQQKWVSRLVKKIPKKPPAPDPFARSSPRTSMKIQQNQSIRRPSRQLAPNKPS
